From publication PMC11481384, “Ponicidin Promotes Hepatocellular Carcinoma Mitochondrial Apoptosis by Stabilizing Keap1‐PGAM5 Complex” (Advanced Science, 2024) come the findings set out here.

The target of the assay is T1, Keap1 Kelch domain (amino acid residues 309 to 624) (human, UniProt Q14145 309-624).
T1 construct: Keap1, Kelch domain, Gene ID 9817 (the human gene), amino acid residues 309 to 624; The species is not put in words; it follows from the printed Gene ID 9817; also called Kelch domain of Keap1; source: E. coli BL21 (Codonplus), purified (Ni-NTA, HiTrap QHP, Superdex 200 Increase)
The experiment in a line: native gel or EMSA; purified Kelch, Δ54‐PGAM5 and ponicidin incubated on ice for 30 min; 7% non‐denatured gel, 4 °C, 90 V, 1 h; Coomassie staining. Particulars: both partners purified. On the technique in general: A gel shift assay detects complexes by their altered migration in electrophoresis.

T1 sequence (Q14145 309-624): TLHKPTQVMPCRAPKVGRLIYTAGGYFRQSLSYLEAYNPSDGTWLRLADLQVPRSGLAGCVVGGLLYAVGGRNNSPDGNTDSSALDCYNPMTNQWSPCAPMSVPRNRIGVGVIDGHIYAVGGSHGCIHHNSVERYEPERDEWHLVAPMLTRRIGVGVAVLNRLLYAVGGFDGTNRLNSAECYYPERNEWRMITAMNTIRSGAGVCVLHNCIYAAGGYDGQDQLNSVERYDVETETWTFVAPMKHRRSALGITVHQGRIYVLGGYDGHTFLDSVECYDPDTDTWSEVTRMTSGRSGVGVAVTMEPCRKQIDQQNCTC

B1: ∆54‐PGAM5 (amino acids from number 54 to 289) (domain or fragment, human, UniProt Q96HS1 54-289, looked up)
chain: GPGVWDPNWDRREPLSLINVRKRNVESGEEELASKLDHYKAKATRHIFLIRHSQYHVDGSLEKDRTLTPLGREQAELTGLRLASLGLKFNKIVHSSMTRAIETTDIISRHLPGVCKVSTDLLREGAPIEPDPPVSHWKPEAVQYYEDGARIEAAFRNYIHRADARQEEDSYEIFICHANVIRYIVCRALQFPPEGWLRLSLNNGSITHLVIRPNGRVALRTLGDTGFMPPDKITRS
notes: PGAM5, Gene ID 192111 (the human gene), amino acid residues 54 to 289; The species is not put in words; it follows from the printed Gene ID 192111; also called Δ54‐PGAM5; PGAM5 domain; source: E. coli BL21 (Codonplus), purified (Ni-NTA, HiTrap QHP, Superdex 200 Increase)
Consider B1, for which the binding result was “binds”.
